Measured values taken from patent publication US20140087995A1 (published 2014).
Numbered stars: 1 amine (or outer) side, 2 acyl side, 3 side chain; on linkers, the order of the positions; unused ones are H or OH. Bridge positions count the residues as written; N and C are the ends. Side chains are listed from the residue outwards. Ends that are not written are not given here. * marks the point of attachment. C20 diacid = O=C(O)CCCCCCCCCCCCCCCCCCC(=O)*; γGlu = O=C(O)[C@H](CCC(=O)[*:2])N[*:1]; AEEA = NCCOCCOCC(=O)O

T1: human calcitonin receptor (human, UniProt P30988 25-474)
T1 sequence (looked up): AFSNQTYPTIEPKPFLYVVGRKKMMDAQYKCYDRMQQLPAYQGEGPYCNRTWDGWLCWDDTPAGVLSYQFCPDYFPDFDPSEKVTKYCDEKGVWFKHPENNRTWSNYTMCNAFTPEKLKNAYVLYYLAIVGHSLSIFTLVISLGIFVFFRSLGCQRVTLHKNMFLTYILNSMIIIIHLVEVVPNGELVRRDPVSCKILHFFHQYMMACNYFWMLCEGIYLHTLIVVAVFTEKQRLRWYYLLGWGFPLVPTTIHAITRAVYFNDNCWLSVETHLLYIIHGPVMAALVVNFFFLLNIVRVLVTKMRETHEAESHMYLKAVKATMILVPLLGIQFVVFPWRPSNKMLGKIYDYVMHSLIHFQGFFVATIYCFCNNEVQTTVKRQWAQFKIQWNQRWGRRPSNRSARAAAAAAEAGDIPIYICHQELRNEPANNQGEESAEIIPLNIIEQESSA

T2: human calcitonin receptor (human, UniProt P30988 25-474)
T2 construct: whole, on cells; Membranes prepared from a stably transfected BHK cell line (Assay VII); also called hCTR; hCT
T2 sequence (looked up): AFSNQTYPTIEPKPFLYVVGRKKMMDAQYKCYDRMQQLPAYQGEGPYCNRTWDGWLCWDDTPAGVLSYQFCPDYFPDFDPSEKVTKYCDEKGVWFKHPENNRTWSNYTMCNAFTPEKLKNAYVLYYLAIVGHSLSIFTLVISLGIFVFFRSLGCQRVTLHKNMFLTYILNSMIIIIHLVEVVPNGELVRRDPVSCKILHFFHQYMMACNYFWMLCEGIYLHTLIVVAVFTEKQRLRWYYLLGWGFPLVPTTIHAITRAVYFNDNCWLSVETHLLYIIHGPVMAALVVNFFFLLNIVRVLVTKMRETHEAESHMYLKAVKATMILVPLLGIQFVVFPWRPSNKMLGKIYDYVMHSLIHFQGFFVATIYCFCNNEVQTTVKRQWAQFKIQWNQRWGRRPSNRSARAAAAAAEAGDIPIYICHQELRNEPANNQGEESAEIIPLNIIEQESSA

T3: rat amylin receptor (rat calcitonin receptor + rat RAMP 3) (rat, UniProt P32214 25-516; Q9JJ73 23-147)
T3 construct: whole, on cells; Membranes prepared from transiently transfected BHK tk'ts 13 cells (Assay VI); also called rAmylin-R; rAmylin
T3 sequence (looked up) 1: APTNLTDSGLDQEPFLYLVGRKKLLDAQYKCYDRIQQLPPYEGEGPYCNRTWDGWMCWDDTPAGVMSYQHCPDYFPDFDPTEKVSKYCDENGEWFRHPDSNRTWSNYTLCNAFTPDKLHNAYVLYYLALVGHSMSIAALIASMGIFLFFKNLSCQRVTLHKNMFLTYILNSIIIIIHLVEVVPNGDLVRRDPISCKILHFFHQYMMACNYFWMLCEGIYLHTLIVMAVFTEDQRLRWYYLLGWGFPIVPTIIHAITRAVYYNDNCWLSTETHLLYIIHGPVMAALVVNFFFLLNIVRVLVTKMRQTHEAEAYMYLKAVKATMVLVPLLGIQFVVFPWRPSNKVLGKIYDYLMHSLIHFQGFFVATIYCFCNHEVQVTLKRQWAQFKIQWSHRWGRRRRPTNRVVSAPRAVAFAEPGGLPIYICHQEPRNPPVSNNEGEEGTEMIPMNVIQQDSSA
T3 sequence (looked up) 2: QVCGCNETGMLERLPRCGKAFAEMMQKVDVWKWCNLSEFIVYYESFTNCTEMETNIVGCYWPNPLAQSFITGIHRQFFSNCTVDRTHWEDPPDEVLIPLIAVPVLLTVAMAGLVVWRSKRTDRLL

T4: rat calcitonin receptor (rat, UniProt P32214 25-516)
T4 construct: whole, on cells; Membranes prepared from transiently transfected BHK tk'ts 13 cells (Assay VIII); also called rCTR; rCT
T4 sequence (looked up): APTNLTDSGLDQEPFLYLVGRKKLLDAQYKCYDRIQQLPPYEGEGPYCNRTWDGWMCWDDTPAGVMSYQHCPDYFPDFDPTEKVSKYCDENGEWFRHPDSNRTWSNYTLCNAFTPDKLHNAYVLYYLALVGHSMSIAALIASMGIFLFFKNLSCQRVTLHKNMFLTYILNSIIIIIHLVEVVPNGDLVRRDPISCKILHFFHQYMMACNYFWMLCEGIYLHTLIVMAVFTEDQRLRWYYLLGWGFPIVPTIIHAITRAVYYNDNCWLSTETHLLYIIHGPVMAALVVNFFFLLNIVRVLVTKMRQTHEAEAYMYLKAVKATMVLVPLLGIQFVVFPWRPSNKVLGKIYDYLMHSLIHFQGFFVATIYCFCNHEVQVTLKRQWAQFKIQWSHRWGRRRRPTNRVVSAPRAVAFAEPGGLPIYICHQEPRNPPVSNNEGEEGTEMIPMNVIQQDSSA


Experiments:
[1] = molecular target: T1, human calcitonin receptor; test: cell-based or functional assay
[2] = molecular target: T2, human calcitonin receptor; test: ratio of binding IC50s: human calcitonin receptor / human amylin receptor (reference)
Outline: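 Competition binding by SPA with cell membranes (35 ng/μL) and SPA beads in 50 mM Hepes pH 7.4 with 1 mM CaCl2, 5 mM MgCl2, 0.1% OA and 0.02% Tween20. Incubated 120 min at 25 °C with shaking, then counted.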

[3] = molecular target: T3, rat amylin receptor (rat calcitonin …); test: SPA competition vs 125I-rat amylin, membranes of BHK cells with rat calcitonin receptor + rat RAMP3 (Assay VI)
[4] = molecular target: T4, rat calcitonin receptor; test: SPA competition vs 125I-calcitonin, membranes of BHK cells with rat calcitonin receptor (Assay VIII)
[5] = molecular target: T4, rat calcitonin receptor; test: ratio of binding IC50s: rat calcitonin receptor / rat amylin receptor (reference)

Row | hCTR funct. EC50 [1] | Binder | also measured
1 | 1.25 nM | K([AEEA-γGlu-C20 diacid])CNTATCATQRLAHFLRHSSPNFGAIPSSTNVGSNTY-NH2 (disulfide 2-7; N-terminus assumed; SMILES CC[C@H](C)[C@H](NC(=O)[C@H](C)NC(=O)CNC(=O)[C@H](Cc1ccccc1)NC(=O)[C@H](CC(N)=O)NC(=O)[C@@H]1CCCN1C(=O)[C@H](CO)NC(=O)[C@H](CO)NC(=O)[C@H](Cc1c[nH]cn1)NC(=O)[C@H](CCCNC(=N)N)NC(=O)[C@H](CC(C)C)NC(=O)[C@H](Cc1ccccc1)NC(=O)[C@H](Cc1c[nH]cn1)NC(=O)[C@H](C)NC(=O)[C@H](CC(C)C)NC(=O)[C@H](CCCNC(=N)N)NC(=O)[C@H](CCC(N)=O)NC(=O)[C@@H](NC(=O)[C@H](C)NC(=O)[C@@H]1CSSC[C@H](NC(=O)[C@@H](N)CCCCNC(=O)COCCOCCNC(=O)CC[C@H](NC(=O)CCCCCCCCCCCCCCCCCCC(=O)O)C(=O)O)C(=O)N[C@@H](CC(N)=O)C(=O)N[C@@H]([C@@H](C)O)C(=O)N[C@@H](C)C(=O)N[C@@H]([C@@H](C)O)C(=O)N1)[C@@H](C)O)C(=O)N1CCC[C@H]1C(=O)N[C@@H](CO)C(=O)N[C@@H](CO)C(=O)N[C@H](C(=O)N[C@@H](CC(N)=O)C(=O)N[C@H](C(=O)NCC(=O)N[C@@H](CO)C(=O)N[C@@H](CC(N)=O)C(=O)N[C@H](C(=O)N[C@@H](Cc1ccc(O)cc1)C(N)=O)[C@@H](C)O)C(C)C)[C@@H](C)O, also called compound 69) | –
2 | 11.8 nM | K([AEEA-AEEA-γGlu-C20 diacid])CNTATCATQRLANFLRHSSPNFGAIPSSTNVGHNTY-NH2 (disulfide 2-7; N-terminus assumed; SMILES CC[C@H](C)[C@H](NC(=O)[C@H](C)NC(=O)CNC(=O)[C@H](Cc1ccccc1)NC(=O)[C@H](CC(N)=O)NC(=O)[C@@H]1CCCN1C(=O)[C@H](CO)NC(=O)[C@H](CO)NC(=O)[C@H](Cc1c[nH]cn1)NC(=O)[C@H](CCCNC(=N)N)NC(=O)[C@H](CC(C)C)NC(=O)[C@H](Cc1ccccc1)NC(=O)[C@H](CC(N)=O)NC(=O)[C@H](C)NC(=O)[C@H](CC(C)C)NC(=O)[C@H](CCCNC(=N)N)NC(=O)[C@H](CCC(N)=O)NC(=O)[C@@H](NC(=O)[C@H](C)NC(=O)[C@@H]1CSSC[C@H](NC(=O)[C@@H](N)CCCCNC(=O)COCCOCCNC(=O)COCCOCCNC(=O)CC[C@H](NC(=O)CCCCCCCCCCCCCCCCCCC(=O)O)C(=O)O)C(=O)N[C@@H](CC(N)=O)C(=O)N[C@@H]([C@@H](C)O)C(=O)N[C@@H](C)C(=O)N[C@@H]([C@@H](C)O)C(=O)N1)[C@@H](C)O)C(=O)N1CCC[C@H]1C(=O)N[C@@H](CO)C(=O)N[C@@H](CO)C(=O)N[C@H](C(=O)N[C@@H](CC(N)=O)C(=O)N[C@H](C(=O)NCC(=O)N[C@@H](Cc1c[nH]cn1)C(=O)N[C@@H](CC(N)=O)C(=O)N[C@H](C(=O)N[C@@H](Cc1ccc(O)cc1)C(N)=O)[C@@H](C)O)C(C)C)[C@@H](C)O, also called compound 97) | –
3 | 21.5 nM | K([AEEA-AEEA-γGlu-C20 diacid])CNTATCATQRLANFLRHSSPNFGAIPSSTNVGRNTY-NH2 (disulfide 2-7; N-terminus assumed; SMILES CC[C@H](C)[C@H](NC(=O)[C@H](C)NC(=O)CNC(=O)[C@H](Cc1ccccc1)NC(=O)[C@H](CC(N)=O)NC(=O)[C@@H]1CCCN1C(=O)[C@H](CO)NC(=O)[C@H](CO)NC(=O)[C@H](Cc1c[nH]cn1)NC(=O)[C@H](CCCNC(=N)N)NC(=O)[C@H](CC(C)C)NC(=O)[C@H](Cc1ccccc1)NC(=O)[C@H](CC(N)=O)NC(=O)[C@H](C)NC(=O)[C@H](CC(C)C)NC(=O)[C@H](CCCNC(=N)N)NC(=O)[C@H](CCC(N)=O)NC(=O)[C@@H](NC(=O)[C@H](C)NC(=O)[C@@H]1CSSC[C@H](NC(=O)[C@@H](N)CCCCNC(=O)COCCOCCNC(=O)COCCOCCNC(=O)CC[C@H](NC(=O)CCCCCCCCCCCCCCCCCCC(=O)O)C(=O)O)C(=O)N[C@@H](CC(N)=O)C(=O)N[C@@H]([C@@H](C)O)C(=O)N[C@@H](C)C(=O)N[C@@H]([C@@H](C)O)C(=O)N1)[C@@H](C)O)C(=O)N1CCC[C@H]1C(=O)N[C@@H](CO)C(=O)N[C@@H](CO)C(=O)N[C@H](C(=O)N[C@@H](CC(N)=O)C(=O)N[C@H](C(=O)NCC(=O)N[C@@H](CCCNC(=N)N)C(=O)N[C@@H](CC(N)=O)C(=O)N[C@H](C(=O)N[C@@H](Cc1ccc(O)cc1)C(N)=O)[C@@H](C)O)C(C)C)[C@@H](C)O, also called compound 95) | –
4 | 1.48 nM | K([AEEA-C20 diacid])CNTATCATQRLANFLRHSSPNFGAIPSSTNVGHNTY-NH2 (disulfide 2-7; N-terminus assumed; SMILES CC[C@H](C)[C@H](NC(=O)[C@H](C)NC(=O)CNC(=O)[C@H](Cc1ccccc1)NC(=O)[C@H](CC(N)=O)NC(=O)[C@@H]1CCCN1C(=O)[C@H](CO)NC(=O)[C@H](CO)NC(=O)[C@H](Cc1c[nH]cn1)NC(=O)[C@H](CCCNC(=N)N)NC(=O)[C@H](CC(C)C)NC(=O)[C@H](Cc1ccccc1)NC(=O)[C@H](CC(N)=O)NC(=O)[C@H](C)NC(=O)[C@H](CC(C)C)NC(=O)[C@H](CCCNC(=N)N)NC(=O)[C@H](CCC(N)=O)NC(=O)[C@@H](NC(=O)[C@H](C)NC(=O)[C@@H]1CSSC[C@H](NC(=O)[C@@H](N)CCCCNC(=O)COCCOCCNC(=O)CCCCCCCCCCCCCCCCCCC(=O)O)C(=O)N[C@@H](CC(N)=O)C(=O)N[C@@H]([C@@H](C)O)C(=O)N[C@@H](C)C(=O)N[C@@H]([C@@H](C)O)C(=O)N1)[C@@H](C)O)C(=O)N1CCC[C@H]1C(=O)N[C@@H](CO)C(=O)N[C@@H](CO)C(=O)N[C@H](C(=O)N[C@@H](CC(N)=O)C(=O)N[C@H](C(=O)NCC(=O)N[C@@H](Cc1c[nH]cn1)C(=O)N[C@@H](CC(N)=O)C(=O)N[C@H](C(=O)N[C@@H](Cc1ccc(O)cc1)C(N)=O)[C@@H](C)O)C(C)C)[C@@H](C)O, also called compound 91) [N^ε1-[2-[2-[2-(19-carboxynonadecanoylamino)ethoxy]ethoxy]acetyl]-[Arg17,Pro21,Pro27,His34]-h-amylin] | –
5 | – | K([γGlu-γGlu-C20 diacid])CNTATCATQRLAHFLRHSSPNFGAIPSSTNVGSNTY-NH2 (disulfide 2-7; N-terminus assumed; SMILES CC[C@H](C)[C@H](NC(=O)[C@H](C)NC(=O)CNC(=O)[C@H](Cc1ccccc1)NC(=O)[C@H](CC(N)=O)NC(=O)[C@@H]1CCCN1C(=O)[C@H](CO)NC(=O)[C@H](CO)NC(=O)[C@H](Cc1c[nH]cn1)NC(=O)[C@H](CCCNC(=N)N)NC(=O)[C@H](CC(C)C)NC(=O)[C@H](Cc1ccccc1)NC(=O)[C@H](Cc1c[nH]cn1)NC(=O)[C@H](C)NC(=O)[C@H](CC(C)C)NC(=O)[C@H](CCCNC(=N)N)NC(=O)[C@H](CCC(N)=O)NC(=O)[C@@H](NC(=O)[C@H](C)NC(=O)[C@@H]1CSSC[C@H](NC(=O)[C@@H](N)CCCCNC(=O)CC[C@H](NC(=O)CC[C@H](NC(=O)CCCCCCCCCCCCCCCCCCC(=O)O)C(=O)O)C(=O)O)C(=O)N[C@@H](CC(N)=O)C(=O)N[C@@H]([C@@H](C)O)C(=O)N[C@@H](C)C(=O)N[C@@H]([C@@H](C)O)C(=O)N1)[C@@H](C)O)C(=O)N1CCC[C@H]1C(=O)N[C@@H](CO)C(=O)N[C@@H](CO)C(=O)N[C@H](C(=O)N[C@@H](CC(N)=O)C(=O)N[C@H](C(=O)NCC(=O)N[C@@H](CO)C(=O)N[C@@H](CC(N)=O)C(=O)N[C@H](C(=O)N[C@@H](Cc1ccc(O)cc1)C(N)=O)[C@@H](C)O)C(C)C)[C@@H](C)O, Analogue of human amylin; also called compound 92) | Ratio hCT/hAmylin binding [2]: 145; IC50 [3]: 0.668 nM; IC50 [4]: 104 nM; Ratio rCT/rAmylin binding [5]: 156
